Data on 39 variants can be found in the RNAGym collection of RNA variant scans (doi:10.7554/elife.80360).

First the molecules themselves.
B1: CPEB3 Ribozyme (parent)
chain: GGGGGCCACAGCAGAAGCGUUCACGUCGCGGCCCCUGUCAGAUUCUGGUGAAUCUGCGAAUUCUGCUGU

The variants in the data set derive from B1. Briefly: self-cleavage, relative activity (ratio to wild type); higher = more cleavage; co-transcriptional.
Take GGGGGCCACAGCAGAAGCGUUCACGUCGCGGCCCCUGUCAGAUUCUGGUGAGUCUGCGAAUUCUGCUGC: the self-cleavage is 1.06.

For GGGGGCCACAGCAGAAGCGUUCACGUCGCGGCCCCUGUCAGAUUCUGGUGAGUCUGCGAAUUCUGCUGG, the self-cleavage turned out to be 1.07.

Consider GGGGGCCACAGCAGAAGCGUUCACGUCGCGGCCCCUGUCAGAUUCUGGUGAGUAUGCGAAUUCUGCUGU, for which the self-cleavage stood at 0.931.

For GGGGGCCACAGCAGAAGCGUUCACGUCGCGGCCCCUGUCAGAUUCUGGUGAGUUUGCGAAUUCUGCUGU, the self-cleavage came out at 1.02.

Turning to GGGGGCCACAGCAGAAGCGUUCACGUCGCGGCCCCUGUCAGAUUCUGGUGAUUCCGCGAAUUCUGCUGU, the self-cleavage came to 0.63.

In the case of GGGGGCCACAGCAGAAGCGUUCACGUCGCGGCCCCUGUCAGAUUCUGGUGACUCUGCGAAUUCCGCUGU, the self-cleavage is 0.842.

On to GGGGGCCACAGCAGAAGCGUUCACGUCGCGGCCCCUGUCAGAUUCUGGUGACUCUGCGAAUUCGGCUGU, for which the self-cleavage was 0.829.

For GGGGGCCACAGCAGAAGCGUUCACGUCGCGGCCCCUGUCAGAUUCUGGUGAGUCAGCGAAUUCUGCUGU, the self-cleavage amounted to 0.914.

As to GGGGGCCACAGCAGAAGCGUUCACGUCGCGGCCCCUGUCAGAUUCUGGUGAGUCGGCGAAUUCUGCUGU, the self-cleavage was 0.729.

Turning to GGGGGCCACAGCAGAAGCGUUCACGUCGCGGCCCCUGUCAGAUUCUGGUGAGUCUGCAAAUUCUGCUGU, the self-cleavage was determined as 0.926.

Turning to GGGGGCCACAGCAGAAGCGUUCACGUCGCGGCCCCUGUCAGAUUCUGGUGAGUCUGCUAAUUCUGCUGU, the self-cleavage turned out to be 1.

Take GGGGGCCACAGCAGAAGCGUUCACGUCGCGGCCCCUGUCAGAUUCUGGUGAUUCUGAGAAUUCUGCUGU: the self-cleavage is 0.453.

Take GGGGGCCACAGCAGAAGCGUUCACGUCGCGGCCCCUGUCAGAUUCUGGUGAUUCUGUGAAUUCUGCUGU: the self-cleavage is 0.309.

Consider GGGGGCCACAGCAGAAGCGUUCACGUCGCGGCCCCUGUCAGAUUCUGGUGAUUCUGGGAAUUCUGCUGU, for which the self-cleavage amounted to 0.334.

In the case of GGGGGCCACAGCAGAAGCGUUCACGUCGCGGCCCCUGUCAGAUUCUGGUGAGACUGCGAAUUCUGCUGU, the self-cleavage was 0.917.

As for GGGGGCCACAGCAGAAGCGUUCACGUCGCGGCCCCUGUCAGAUUCUGGUGAUUCUGCGAAUGCUGCUGU, the self-cleavage amounted to 0.82.

For the variant GGGGGCCACAGCAGAAGCGUUCACGUCGCGGCCCCUGUCAGAUUCUGGUGAUUCUGCGAAUACUGCUGU, the self-cleavage was determined as 0.829.

In the case of GGGGGCCACAGCAGAAGCGUUCACGUCGCGGCCCCUGUCAGAUUCUGGUGACUCUGCGAAUUCUGCAGU, the self-cleavage was determined as 0.963.

Take GGGGGCCACAGCAGAAGCGUUCACGUCGCGGCCCCUGUCAGAUUCUGGUGAUUCUGCGAAUUCUGCUGC: the self-cleavage came to 1.05.

Turning to GGGGGCCACAGCAGAAGCGUUCACGUCGCGGCCCCUGUCAGAUUCUGGUGAUACUGCGAAUUCUGCUGU, the self-cleavage was found to be 0.981.

On to GGGGGCCACAGCAGAAGCGUUCACGUCGCGGCCCCUGUCAGAUUCUGGUGAUGCUGCGAAUUCUGCUGU, for which the self-cleavage was found to be 0.871.

On to GGGGGCCACAGCAGAAGCGUUCACGUCGCGGCCCCUGUCAGAUUCUGGUGAUCCUGCGAAUUCUGCUGU, for which the self-cleavage was 0.879.

Consider GGGGGCCACAGCAGAAGCGUUCACGUCGCGGCCCCUGUCAGAUUCUGGUGAUUGUGCGAAUUCUGCUGU, for which the self-cleavage came out at 0.835.

With GGGGGCCACAGCAGAAGCGUUCACGUCGCGGCCCCUGUCAGAUUCUGGUGAUUAUGCGAAUUCUGCUGU, the self-cleavage stood at 0.907.

As to GGGGGCCACAGCAGAAGCGUUCACGUCGCGGCCCCUGUCAGAUUCUGGUGAGUCUGUGAAUUCUGCUGU, the self-cleavage amounted to 0.407.

On to GGGGGCCACAGCAGAAGCGUUCACGUCGCGGCCCCUGUCAGAUUCUGGUGAGUCUGGGAAUUCUGCUGU, for which the self-cleavage was found to be 0.23.

On to GGGGGCCACAGCAGAAGCGUUCACGUCGCGGCCCCUGUCAGAUUCUGGUGAUUCUGCCAAUUCUGCUGU, for which the self-cleavage is 0.954.

Regarding GGGGGCCACAGCAGAAGCGUUCACGUCGCGGCCCCUGUCAGAUUCUGGUGAUUCUGCUAAUUCUGCUGU, the self-cleavage was found to be 0.992.

On to GGGGGCCACAGCAGAAGCGUUCACGUCGCGGCCCCUGUCAGAUUCUGGUGAGUCUGCGAAUUAUGCUGU, for which the self-cleavage was found to be 0.907.

As to GGGGGCCACAGCAGAAGCGUUCACGUCGCGGCCCCUGUCAGAUUCUGGUGAGUCUGCGAAUUGUGCUGU, the self-cleavage stood at 0.865.

In the case of GGGGGCCACAGCAGAAGCGUUCACGUCGCGGCCCCUGUCAGAUUCUGGUGAGUCUGCGAAUUUUGCUGU, the self-cleavage was 1.

For the variant GGGGGCCACAGCAGAAGCGUUCACGUCGCGGCCCCUGUCAGAUUCUGGUGACUCUGCGAAUACUGCUGU, the self-cleavage is 0.882.

With GGGGGCCACAGCAGAAGCGUUCACGUCGCGGCCCCUGUCAGAUUCUGGUGACUCUGCGAAUCCUGCUGU, the self-cleavage is 0.811.

On to GGGGGCCACAGCAGAAGCGUUCACGUCGCGGCCCCUGUCAGAUUCUGGUGAGUCUGCGAAUUCUGCAGU, for which the self-cleavage amounted to 1.

On to GGGGGCCACAGCAGAAGCGUUCACGUCGCGGCCCCUGUCAGAUUCUGGUGAGUCUGCGAAUGCUGCUGU, for which the self-cleavage was determined as 0.963.

On to GGGGGCCACAGCAGAAGCGUUCACGUCGCGGCCCCUGUCAGAUUCUGGUGAGUCUGCGAAUACUGCUGU, for which the self-cleavage was found to be 0.871.

Regarding GGGGGCCACAGCAGAAGCGUUCACGUCGCGGCCCCUGUCAGAUUCUGGUGAGUCUGCGAAUCCUGCUGU, the self-cleavage came out at 0.915.

As to GGGGGCCACAGCAGAAGCGUUCACGUCGCGGCCCCUGUCAGAUUCUGGUGAUUCUGCGAAAUCUGCUGU, the self-cleavage stood at 0.935.

On to GGGGGCCACAGCAGAAGCGUUCACGUCGCGGCCCCUGUCAGAUUCUGGUGAUUCUGCGAACUCUGCUGU, for which the self-cleavage stood at 0.68.
